The experiment concerns the target T1, recombinant GST-Scd6 (S. cerevisiae, UniProt P45978 1-349).
T1 sequence (looked up): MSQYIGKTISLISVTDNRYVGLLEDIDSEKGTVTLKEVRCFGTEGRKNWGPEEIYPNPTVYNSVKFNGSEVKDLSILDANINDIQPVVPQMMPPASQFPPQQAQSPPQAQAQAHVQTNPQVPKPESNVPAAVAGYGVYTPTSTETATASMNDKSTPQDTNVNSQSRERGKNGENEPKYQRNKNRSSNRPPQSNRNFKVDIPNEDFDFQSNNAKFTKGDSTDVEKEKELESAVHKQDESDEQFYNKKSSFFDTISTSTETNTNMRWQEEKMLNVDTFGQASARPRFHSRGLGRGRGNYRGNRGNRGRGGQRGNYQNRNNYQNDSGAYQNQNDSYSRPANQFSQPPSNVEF
The experiment is described as follows: pull-down.

B1: recombinant purified His-Hmt1 (enzyme, S. cerevisiae, UniProt P38074 1-348, looked up)
chain: MSKTAVKDSATEKTKLSESEQHYFNSYDHYGIHEEMLQDTVRTLSYRNAIIQNKDLFKDKIVLDVGCGTGILSMFAAKHGAKHVIGVDMSSIIEMAKELVELNGFSDKITLLRGKLEDVHLPFPKVDIIISEWMGYFLLYESMMDTVLYARDHYLVEGGLIFPDKCSIHLAGLEDSQYKDEKLNYWQDVYGFDYSPFVPLVLHEPIVDTVERNNVNTTSDKLIEFDLNTVKISDLAFKSNFKLTAKRQDMINGIVTWFDIVFPAPKGKRPVEFSTGPHAPYTHWKQTIFYFPDDLDAETGDTIEGELVCSPNEKNNRDLNIKISYKFESNGIDGNSRSRKNEGSYLMH
For B1, the binding result is “binds”.

The values above are taken from article PMC5100564 (Nucleic Acids Research, 2016).
